Where a chain is given by its changes, count along the chain named.
B1: SPI11 (protein)
chain: MHSFCAFKAETGPCRARFDRWFFNIFTRQCEEFIYGGCEGNQNRFESLEECKKMCTRD
B2: human plasmin (protein)
chain: KVYLSECKTGNGKNYRGTMSKTKNGITCQKWSSTSPHRPRFSPATHPSEGLEENYCRNPDNDPQGPWCYTTDPEKRYDYCDILECEEECMHCSGENYDGKISKTMSGLECQAWDSQSPHAHGYIPSKFPNKNLKKNYCRNPDRELRPWCFTTDPNKRWELCDIPRCTTPPPSSGPTYQCLKGTGENYRGNVAVTVSGHTCQHWSAQTPHTHNRTPENFPCKNLDENYCRNPDGKRAPWCHTTNSQVRWEYCKIPSCDSSPVSTEQLAPTAPPELTPVVQDCYHGDGQSYRGTSSTTTTGKKCQSWSSMTPHRHQKTPENYPNAGLTMNYCRNPDADKGPWCFTTDPSVRWEYCNLKKCSGTEASVVAPPPVVLLPDVETPSEEDCMFGNGKGYRGKRATTVTGTPCQDWAAQEPHRHSIFTPETNPRAGLEKNYCRNPDGDVGGPWCYTTNPRKLYDYCDVPQCAAPSFDCGKPQVEPKKCPGRVVGGCVAHPHSWPWQVSLRTRFGMHFCGGTLISPEWVLTAAHCLEKSPRPSSYKVILGAHQEVNLEPHVQEIEVSRLFLEPTRKDIALLKLSSPAVITDKVIPACLPSPNYVVADRTECFITGWGETQGTFGAGLLKEAQLPVIENKVCNRYEFLNGRVQSTELCAGHLAGGTDSCQGDSGGPLVCFEKDKYILQGVTSWGLGCARPNKPGVYVRVSRFVTWIEGVMRNN
B3: SPI54 (protein)
chain: B1 chain with E10D, T11S, E31T, E32R, I34P, E39G
B4: QS4 (protein)
chain: MHSFCAFKADDGPCKARFERFFFNIFTRQCEQFYYGGCDGNQNRFESLEECKKMCTRD
B5: SPI43 (protein)
chain: B1 chain with A16G, R17K, E32S, I34H, E39K
B6: SPI47 (protein)
chain: B1 chain with E10D, T11A, R17K, D19E, W21F
B7: SPI22 (protein)
chain: B4 chain with D11G, A16G, R17K, E19P, Q32E, Y34I, D39E
B8: SPI51 (protein)
chain: B4 chain with D11A, K15R, R17K, E31T, Q32A, Y34F, D39G
B9: SPI23 (protein)
chain: B1 chain with T11G, R17K, D19Q

Tests used:
[1] = target: B2
[2] = target: B2
[3] = target: BPTI (Bos taurus)

Binder	Kd [1]	Ki [2]	Kd [3]
B1	0.088 nM	0.088 nM	
B2			0.3 nM
B3	> 4 nM		
B4	2 nM		
B5	> 4 nM		
B6	~0.8 nM		
B7	> 2 nM		
B8	~0.5 nM		
B9	~0.5 nM		

From patent publication US20050186649 (published 2005)
